The RNAGym collection of RNA variant scans (doi:10.1073/pnas.2313332121)

B1: TPR t1 (parent)
chain: GACCAAUCUGCCCUCAGAGCUCGAGAACAUCUUCGGAUGCAGAGGAGGCAGGCUUCGGUGGCGCGAUAGCGCCAACGUCCUCAACCUCCAAUGCAUCCCACCACAUGAUGAUGCCUGAAGAGCCUUGGUUUUUUG

Variants of: B1
Assay: polymerase ribozyme fitness, log enrichment relative to wild type (log ratio); higher = more active; in vitro selection for triplet polymerase activity
Procedure, shortened: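 Mutant libraries were PCR-built and transcribed for each subunit of a heterodimeric triplet polymerase ribozyme and selected for one round in triplicate at −7 °C, frozen, before gel excision of extended constructs and streptavidin-bead capture. Input and output libraries were Illumina-sequenced, keeping genotypes with ≥10 input reads and ≥1 read per output. Fitness is a logarithmic ratio of genotype to wild-type enrichment, in base 2, using inverse-variance-weighted replicate averages.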
For C15G C98U A111G, the “polymerase ribozyme fitness (log ratio)” value was -5.41. For C15G G42C G60U C94U A118U, the “polymerase ribozyme fitness (log ratio)” value was -3.25. For C15G G44C G47A G69U, the “polymerase ribozyme fitness (log ratio)” value was -3.06. For C15G G44U C72U, the “polymerase ribozyme fitness (log ratio)” value was -4.59. For C15G G47U, the “polymerase ribozyme fitness (log ratio)” value was -3.95. With C15G G47U U55C U78C C82U C86A G120U the “polymerase ribozyme fitness (log ratio)” value was -2.18. With C15G G48A C85G the “polymerase ribozyme fitness (log ratio)” value was -3.62. For C15G G48A U78G C97U A111U, the “polymerase ribozyme fitness (log ratio)” value was -6.43. With C15G G52U C89G G117C the “polymerase ribozyme fitness (log ratio)” value was -1.36. With C15G G60A G117U the “polymerase ribozyme fitness (log ratio)” value was -0.472. In the case of C15G G63C U96C G117C U130G, the “polymerase ribozyme fitness (log ratio)” value is reported as -0.822. In the case of C15G G71A, the “polymerase ribozyme fitness (log ratio)” value is reported as -2.92. In the case of C15G G71A U81C, the “polymerase ribozyme fitness (log ratio)” value is reported as -4.61. In the case of C15G G107A, the “polymerase ribozyme fitness (log ratio)” value is reported as -5.32. With C15G G113C the “polymerase ribozyme fitness (log ratio)” value was -6.27. With C15G U59G the “polymerase ribozyme fitness (log ratio)” value was -2.27. For C15G U59G C123G U129G, the “polymerase ribozyme fitness (log ratio)” value was -1.59. With C15G U96G G120A the “polymerase ribozyme fitness (log ratio)” value was -1.53. With C15G U112C the “polymerase ribozyme fitness (log ratio)” value was -1.42. For C15U A16U G57A C82U U112A, the “polymerase ribozyme fitness (log ratio)” value was -5.23. In the case of C15U A16U G71A C115A, the “polymerase ribozyme fitness (log ratio)” value is reported as -3.96. With C15U A18C the “polymerase ribozyme fitness (log ratio)” value was -3.52. For C15U A18G A37G U54A G65C A100U C115A, the “polymerase ribozyme fitness (log ratio)” value was -5.35. For C15U A18U G44U G69U G117C A121C, the “polymerase ribozyme fitness (log ratio)” value was -4.92. In the case of C15U A24G A41G C73A C115U, the “polymerase ribozyme fitness (log ratio)” value is reported as -2.38. With C15U A24G A41G C115U the “polymerase ribozyme fitness (log ratio)” value was -2.93. With C15U A27C C85A G117C C124G G128A U129G the “polymerase ribozyme fitness (log ratio)” value was -6.66. For C15U A27G U32A A46C C82A G117U, the “polymerase ribozyme fitness (log ratio)” value was -5.76. For C15U A29U C40A A46C, the “polymerase ribozyme fitness (log ratio)” value was -5.8. With C15U A37C C76G the “polymerase ribozyme fitness (log ratio)” value was -2.14. For C15U A37C G61C, the “polymerase ribozyme fitness (log ratio)” value was -3.39. For C15U A41G, the “polymerase ribozyme fitness (log ratio)” value was -1.83. For C15U A41G G57C C62U U112A G122A G135A, the “polymerase ribozyme fitness (log ratio)” value was -1.87. In the case of C15U A46G G51A C56G U59C G71C U78G U92G C123U, the “polymerase ribozyme fitness (log ratio)” value is reported as -6.11. In the case of C15U A46G G69C C86G C124U, the “polymerase ribozyme fitness (log ratio)” value is reported as -3.98. In the case of C15U A83G, the “polymerase ribozyme fitness (log ratio)” value is reported as -1.88. In the case of C15U A100U G117U, the “polymerase ribozyme fitness (log ratio)” value is reported as -2.41. For C15U A105U, the “polymerase ribozyme fitness (log ratio)” value was -3.42. In the case of C15U C28A C72U C76G A121C, the “polymerase ribozyme fitness (log ratio)” value is reported as -3.19. With C15U C28G G39U C124A U129G the “polymerase ribozyme fitness (log ratio)” value was -5.23. For C15U C28U A68G G110A, the “polymerase ribozyme fitness (log ratio)” value was -2.39. For C15U C34A G45C, the “polymerase ribozyme fitness (log ratio)” value was -6.34. In the case of C15U C34A G60C C82G A105G G113U, the “polymerase ribozyme fitness (log ratio)” value is reported as -6.14. For C15U C34A G69C, the “polymerase ribozyme fitness (log ratio)” value was -5.57. In the case of C15U C40U G61U, the “polymerase ribozyme fitness (log ratio)” value is reported as -0.881. In the case of C15U C49A C72A U129C U134A G135C, the “polymerase ribozyme fitness (log ratio)” value is reported as -1.14. With C15U C53A A83C the “polymerase ribozyme fitness (log ratio)” value was -1.46. With C15U C53G C64A C104A C124U the “polymerase ribozyme fitness (log ratio)” value was -6.1. In the case of C15U C53G C82A, the “polymerase ribozyme fitness (log ratio)” value is reported as -1.78. With C15U C56G G61U A66G C73U C94G C97G C98A U112G A119C G135C the “polymerase ribozyme fitness (log ratio)” value was -5.66. For C15U C56U G117C, the “polymerase ribozyme fitness (log ratio)” value was -1.61. With C15U C56U U87G G113A U130A the “polymerase ribozyme fitness (log ratio)” value was -3.68. For C15U C62A C79A, the “polymerase ribozyme fitness (log ratio)” value was -4.11. With C15U C62A C86U A111C U129G the “polymerase ribozyme fitness (log ratio)” value was -4.97. In the case of C15U C62G C85A, the “polymerase ribozyme fitness (log ratio)” value is reported as -4.14. For C15U C72A A83C C89U C97U, the “polymerase ribozyme fitness (log ratio)” value was -3.4. With C15U C72G the “polymerase ribozyme fitness (log ratio)” value was -1.64. In the case of C15U C73U A74C, the “polymerase ribozyme fitness (log ratio)” value is reported as -1.46. For C15U C73U A83G, the “polymerase ribozyme fitness (log ratio)” value was -2.56. For C15U C76U A100U G120C, the “polymerase ribozyme fitness (log ratio)” value was 0.0455. In the case of C15U C79A, the “polymerase ribozyme fitness (log ratio)” value is reported as -2.26. For C15U C88A A91C, the “polymerase ribozyme fitness (log ratio)” value was -2.47. In the case of C15U C88U A118G, the “polymerase ribozyme fitness (log ratio)” value is reported as -1.82. With C15U C98U the “polymerase ribozyme fitness (log ratio)” value was -2.28. For C15U C101A, the “polymerase ribozyme fitness (log ratio)” value was -2.35. With C15U C101U the “polymerase ribozyme fitness (log ratio)” value was -1.84. With C15U G17A G19A U38G G69C A75U U92G U109C C124U U134G the “polymerase ribozyme fitness (log ratio)” value was -5.8. In the case of C15U G17U A74C U78G C80U C115A, the “polymerase ribozyme fitness (log ratio)” value is reported as -2.32. In the case of C15U G36A A121C, the “polymerase ribozyme fitness (log ratio)” value is reported as 0.213. In the case of C15U G39U G52A, the “polymerase ribozyme fitness (log ratio)” value is reported as -3.14. In the case of C15U G42A G48A C79U A105C U112A G113U C124A, the “polymerase ribozyme fitness (log ratio)” value is reported as -4.71. For C15U G42U G120U G127C, the “polymerase ribozyme fitness (log ratio)” value was -2.69. In the case of C15U G44C G93A, the “polymerase ribozyme fitness (log ratio)” value is reported as -2.63. With C15U G44U C85A C94U G117C A118U the “polymerase ribozyme fitness (log ratio)” value was -4.78. For C15U G47A G113C A121C, the “polymerase ribozyme fitness (log ratio)” value was -4.25. In the case of C15U G47U C49A C86A U106C, the “polymerase ribozyme fitness (log ratio)” value is reported as -2.3. For C15U G48A G57A C86A, the “polymerase ribozyme fitness (log ratio)” value was -3.37. For C15U G52C C62G U78A, the “polymerase ribozyme fitness (log ratio)” value was -3.9. In the case of C15U G52U G61A C98U U125A U131A, the “polymerase ribozyme fitness (log ratio)” value is reported as -3.15. In the case of C15U G57U C102A U116G C123G, the “polymerase ribozyme fitness (log ratio)” value is reported as -4.08. In the case of C15U G58C G120C, the “polymerase ribozyme fitness (log ratio)” value is reported as 0.694. In the case of C15U G60C A91U U129A, the “polymerase ribozyme fitness (log ratio)” value is reported as -4.69. In the case of C15U G60U, the “polymerase ribozyme fitness (log ratio)” value is reported as -1.08.
